Test results published in US20140359899A1.

Test system: T1, OC[C@H]1O[C@@](CO)(O[C@H]2O[C@H](CO)[C@@H](O)[C@H](O)[C@H]2O)[C@@H](O)[C@@H]1O
T1 construct: Primers for the full length ORF of AtSWEET11 (AtSWT11FattB1 and AtSWT11attB2) or AtSWEET12; expressed in transfected cells; host or cells: Xenopus oocytes injected with capped cRNA from pOO2-GW
Experiment: Oocyte uptake assay: [14C]-sucrose uptake in Xenopus oocytes expressing AtSWEET12
Type: cell-based, Arabidopsis
Conditions: other: Xenopus oocytes; FIG. 1F

AtSWEET12 (Arabidopsis thaliana), sequence (chain, as listed by the source): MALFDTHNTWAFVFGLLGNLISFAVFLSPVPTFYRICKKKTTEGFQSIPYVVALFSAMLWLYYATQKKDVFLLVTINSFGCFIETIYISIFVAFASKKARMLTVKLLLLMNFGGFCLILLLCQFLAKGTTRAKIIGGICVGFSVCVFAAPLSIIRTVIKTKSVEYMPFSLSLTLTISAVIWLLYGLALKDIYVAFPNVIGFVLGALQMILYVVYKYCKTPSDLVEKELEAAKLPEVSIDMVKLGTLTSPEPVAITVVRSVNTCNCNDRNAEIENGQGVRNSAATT

## AtSWEET12 (Arabidopsis thaliana)
  Km: 70 mM
